The target of test [1] is recombinant mouse APRIL (mouse) (UniProt Q9D777). Put plainly: cell-based or functional assay.
The target of test [2] is recombinant human BAFF (human) (UniProt Q9Y275). Put plainly: cell-based or functional assay.
Test [3] has as its target APRIL + BAFF in combination (human). Put plainly: cell-based or functional assay.
The target of test [4] is recombinant mouse BAFF (mouse) (UniProt Q9WU72). As to the kind of experiment: cell-based or functional assay.
Test [5] deals with recombinant human APRIL (human) (UniProt O75888). As to the kind of experiment: cell-based or functional assay.
Test [6] has as its target recombinant human BAFF (human) (UniProt Q9Y275). As to the kind of experiment: cell-based or functional assay. The source holds these as a separate data set.
Test [7] has as its target BAFF 60-mer (human) (UniProt Q9Y275). As to the kind of experiment: cell-based or functional assay.
The target of test [8] is recombinant human BAFF (human) (UniProt Q9Y275).
Test [9] addresses single chain BAFF homotrimer (BAFF-BAFF-BAFF) (human) (UniProt Q9Y275). Put plainly: cell-based or functional assay.
In test [10] the target is single chain APRIL-BAFF-BAFF heterotrimer (ABB) (human) (UniProt O75888). As to the kind of experiment: cell-based or functional assay.
Test [11] deals with single chain BAFF-APRIL-APRIL heterotrimer (BAA) (human) (UniProt Q9Y275). Put plainly: cell-based or functional assay.
In test [12] the target is recombinant human APRIL (human) (UniProt O75888). Put plainly: cell-based or functional assay. The source holds these as a separate data set.
The target of test [13] is recombinant human BAFF (human) (UniProt Q9Y275). This is another data set of the same source.
Test [14] deals with recombinant human APRIL (human) (UniProt O75888).
For test [15], the target named is recombinant human BAFF (human) (UniProt Q9Y275). The source holds these as a separate data set.
Test [16] concerns the target recombinant mouse APRIL (mouse) (UniProt Q9D777).
Test [17] deals with recombinant mouse BAFF (mouse) (UniProt Q9WU72).

Read-outs that look alike come from different tables or passages of the source.

TACI 30-110-Fc (Fc fusion), sequence (chain): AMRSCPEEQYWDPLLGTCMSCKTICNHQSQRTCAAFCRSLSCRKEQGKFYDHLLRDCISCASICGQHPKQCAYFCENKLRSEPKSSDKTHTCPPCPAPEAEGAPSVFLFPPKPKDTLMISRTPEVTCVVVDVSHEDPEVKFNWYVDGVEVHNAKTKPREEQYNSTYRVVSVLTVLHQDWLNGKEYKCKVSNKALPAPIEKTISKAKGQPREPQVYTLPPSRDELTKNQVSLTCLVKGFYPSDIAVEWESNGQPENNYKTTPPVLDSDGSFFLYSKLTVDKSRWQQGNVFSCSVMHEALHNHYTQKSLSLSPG
recombinant mouse BAFF (mouse), sequence (Q9WU72 127-309 limits assumed): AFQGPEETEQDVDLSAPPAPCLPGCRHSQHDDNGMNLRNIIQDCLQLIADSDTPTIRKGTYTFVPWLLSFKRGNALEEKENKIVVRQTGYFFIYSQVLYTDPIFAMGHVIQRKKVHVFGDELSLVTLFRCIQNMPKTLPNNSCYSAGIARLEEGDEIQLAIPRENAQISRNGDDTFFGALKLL
TACI 13-118-Fc (Fc fusion), sequence (chain): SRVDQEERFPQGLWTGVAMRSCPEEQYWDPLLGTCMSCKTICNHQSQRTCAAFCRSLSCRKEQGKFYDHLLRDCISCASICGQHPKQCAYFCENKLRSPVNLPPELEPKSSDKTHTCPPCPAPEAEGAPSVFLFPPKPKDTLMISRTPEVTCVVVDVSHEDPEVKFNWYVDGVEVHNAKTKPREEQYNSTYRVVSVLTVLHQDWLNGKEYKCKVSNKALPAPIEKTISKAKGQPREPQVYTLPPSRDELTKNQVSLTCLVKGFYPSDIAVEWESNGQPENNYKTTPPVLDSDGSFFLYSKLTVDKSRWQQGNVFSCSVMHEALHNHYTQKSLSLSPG
Atacicept (WT TACI-Fc with the atacicept sequence) (Fc fusion), sequence (chain): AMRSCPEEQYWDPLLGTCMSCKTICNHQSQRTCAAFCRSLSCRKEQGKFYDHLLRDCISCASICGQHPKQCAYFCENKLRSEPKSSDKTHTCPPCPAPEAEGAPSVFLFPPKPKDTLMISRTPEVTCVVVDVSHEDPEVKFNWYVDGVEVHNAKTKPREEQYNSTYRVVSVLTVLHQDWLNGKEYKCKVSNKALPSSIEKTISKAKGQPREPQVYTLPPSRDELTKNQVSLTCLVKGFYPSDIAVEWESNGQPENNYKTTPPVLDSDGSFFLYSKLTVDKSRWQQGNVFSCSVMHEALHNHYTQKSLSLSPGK
recombinant mouse APRIL (mouse), sequence (Q9D777 96-241 limits assumed): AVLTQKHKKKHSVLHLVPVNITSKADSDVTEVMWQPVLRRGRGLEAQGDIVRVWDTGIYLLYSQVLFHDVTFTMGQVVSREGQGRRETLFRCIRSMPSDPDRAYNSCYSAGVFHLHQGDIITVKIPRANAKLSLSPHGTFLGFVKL
13 TACI CRD2-Fc (Fc fusion), sequence (chain): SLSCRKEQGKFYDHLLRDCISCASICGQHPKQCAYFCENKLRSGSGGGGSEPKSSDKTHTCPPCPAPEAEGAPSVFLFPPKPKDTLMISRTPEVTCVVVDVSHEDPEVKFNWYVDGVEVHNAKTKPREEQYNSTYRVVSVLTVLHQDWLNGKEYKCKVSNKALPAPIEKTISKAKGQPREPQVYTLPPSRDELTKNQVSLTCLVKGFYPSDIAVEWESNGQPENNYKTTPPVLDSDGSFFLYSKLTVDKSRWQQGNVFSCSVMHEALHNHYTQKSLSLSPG
WT TACI 13-118-Fc based on the published telitacicept sequence (Fc fusion), sequence (chain): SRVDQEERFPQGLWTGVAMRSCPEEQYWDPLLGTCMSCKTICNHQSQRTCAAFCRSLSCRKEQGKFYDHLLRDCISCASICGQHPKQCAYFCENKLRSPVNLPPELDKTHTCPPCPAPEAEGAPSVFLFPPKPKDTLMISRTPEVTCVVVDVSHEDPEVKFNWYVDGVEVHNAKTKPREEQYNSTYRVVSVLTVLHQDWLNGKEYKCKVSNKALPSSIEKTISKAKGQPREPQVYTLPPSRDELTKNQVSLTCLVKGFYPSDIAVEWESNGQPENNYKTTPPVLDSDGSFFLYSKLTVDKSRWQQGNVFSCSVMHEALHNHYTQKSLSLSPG

Consider “Atacicept (WT TACI-Fc with the atacicept sequence) (Fc fusion)”, for which the IC50, TACI/Jurkat/NF-kB reporter in test [1] is 18 nM; in test [2] it was 20.8 nM; in [3] it was above 200 nM; in test [4], 9 nM; in test [5], above 200 nM. The IC50, Jurkat/NF-kB/TACI reporter in test [2] turned out to be 8.29 nM; in [3], 7.72 nM; in test [5], 9.26 nM; in test [6], 7.74 nM. Moreover, in test [6], the IC50 relative to WT TACI (68-110)-Fc (Δ WT) was 4.17.

Take TACI 30-110-Fc (Fc fusion): the IC50, TACI/Jurkat/NF-kB reporter in test [7] was above 100 nM. Further, in test [2], the IC50, Jurkat/NF-kB/TACI reporter is 4490 nM; the IC50 relative to TACI 30-110 is 1; the IC50 relative to TACI 30-110-Fc came out at 1. In addition, in test [5], the IC50, Jurkat/NF-kB/TACI reporter is 4320 nM; the IC50 relative to TACI 30-110 was determined as 1; the IC50 relative to TACI 30-110-Fc amounted to 1. In addition, the IC50 (read off the curve), human BAFF, NF-κB luciferase reporter, TACI/Jurkat/NF-κB cells in test [8] was found to be 20 nM.

Consider 13 TACI CRD2-Fc (Fc fusion), for which the IC50, TACI/Jurkat/NF-kB reporter in [1] came out at 2.9 nM; in test [9] it was 7.46 nM; in test [7], 18.7 nM; in test [2], 3 nM; in [10] it was 179 pM; in test [3] it was 12.9 nM. Further, the IC50, TACI/Jurkat/NF-kB reporter in [4] is 2.2 nM; in test [5] it was 8.5 nM; in test [11] it was below 16 pM. Besides, the IC50, Jurkat/NF-kB/TACI reporter was determined as 1330 nM in test [2], 369 nM in test [5], 1.85 nM in [6] and 12.3 nM in [12]. In addition, the figures for the IC50 relative to TACI 30-110-Fc in [2] and in test [5] were 0.23 and 0.1, respectively. The IC50 relative to WT TACI (68-110)-Fc (Δ WT) in test [6] and in test [12] was 1 each time. The IC50 (read off the curve), human BAFF, NF-κB luciferase reporter, TACI/Jurkat/NF-κB cells in test [8] came to 3 nM. In addition, the IC50 (read off the curve), human BAFF, NF-κB luciferase reporter, Jurkat/TACI/NF-κB cells in test [13] came out at 2000 pM. Moreover, the IC50 (read off the curve), human APRIL, NF-κB luciferase reporter, Jurkat/TACI/NF-κB cells in test [14] is 5 nM. Besides, the IC50 (read off the curve), human BAFF, NF-κB luciferase reporter, Jurkat/NF-κB/TACI cells in test [15] came out at 4 nM. In [16], the IC50 (read off the curve), mouse APRIL, NF-κB luciferase reporter, Jurkat/NF-κB/TACI cells came out at 700 pM. The IC50 (read off the curve), mouse BAFF, NF-κB luciferase reporter, Jurkat/NF-κB/TACI cells in test [17] came to 5 nM.

For TACI 13-118-Fc (Fc fusion), in test [2], the IC50, Jurkat/NF-kB/TACI reporter is 7700 nM; the IC50 relative to TACI 30-110 is 1.88; the IC50 relative to TACI 30-110-Fc came out at 1.33. In addition, in test [5], the IC50, Jurkat/NF-kB/TACI reporter stood at 7810 nM; the IC50 relative to TACI 30-110 is 1.81; the IC50 relative to TACI 30-110-Fc amounted to 2.37. In [6], the IC50, Jurkat/NF-kB/TACI reporter came out at 7.91 nM and the IC50 relative to WT TACI (68-110)-Fc (Δ WT) worked out at 4.26. Further, in test [8], the IC50 (read off the curve), human BAFF, NF-κB luciferase reporter, TACI/Jurkat/NF-κB cells amounted to 20 nM.

On to “WT TACI 13-118-Fc based on the published telitacicept sequence (Fc fusion)”, for which the IC50, TACI/Jurkat/NF-kB reporter in test [3] was above 200 nM.

For 30 TACI CRD2-Fc (R84Q) (Fc fusion), the results for the IC50, Jurkat/NF-kB/TACI reporter in test [6] and in test [12] were 5.49 nM and 0.566 nM, respectively. In addition, the IC50 relative to WT TACI (68-110)-Fc (Δ WT) in test [6] turned out to be 2.96; in [12], 0.05. Also, the IC50 (read off the curve), human BAFF, NF-κB luciferase reporter, Jurkat/TACI/NF-κB cells in test [13] amounted to 1000 pM.
